Measured values taken from patent US20150111822A1 (OTTAWA HOSPITAL RESEARCH INSTITUTE, published 2015).

Target: T1, endogenous Fzd7 on activated mouse satellite cells (mouse, UniProt Q61090 33-572)
T1 construct: whole, on cells; also called Frizzled7; Wnt7a receptor Fzd7
Assay: in-situ proximity ligation assay (PLA) on activated satellite cells on cultured myofibers; signal abolished by siSdc4
Experimental: A) Co-IP of Sdc4 with the Wnt7a receptor Fzd7 from satellite cell derived primary myoblasts overexpressing (OE) Fzd7-Flag and Sdc4-YFP. Co-IP was performed with an anti-YFP antibody or with an IgG control. B) Proximity ligation assay (PLA) of Sdc4 and Fzd7 in activated satellite cells after 42 hours of fiber culture. […] Scale bar=5 μm. C) Proximity ligation assay (PLA) of Sdc4 and FN in activated satellite cells after 42 hours of fiber culture. […] Scale bar=5 μm. D) Co-IP of Fzd7 with FN from satellite cell derived primary myoblasts overexpressing (OE) Fzd7-Flag and FN. Co-IP was performed with an anti-YFP antibody. siRNA knockdown of endogenous Sdc4 (siSdc4) prevented Co-IP of FN with Fzd7 when compared to siSCR. E) Co-IP of Sdc4 with Wnt7a from satellite cell derived primary myoblasts that overexpress (OE) Sdc4-YFP and Wnt7a-HA. Co-IP was performed with an anti-flag antibody. siRNA knockdown of endogenous Fzd7 prevented Co-IP of Sdc4 with Wnt7a. F) Rac1 activation assay. Total Rac1 is shown as a loading control. Densitometric quantification represents average grey values±SEM after subtraction of the background and normalization to total Rac1. The average grey value obtained for empty vector (EV) was set to 100%, n=3, p values are ***p<0.001, **p<0.01, *p<0.05.
Mouse Fzd7 immunoprecipitated with mouse Sdc4 in mammalian myogenic cells. […]

binding result: binds
B1: endogenous Syndecan 4 (Sdc4) on mouse satellite cells and primary myoblasts (receptor, UniProt O35988 24-198, looked up)
chain: ESIRETEVIDPQDLLEGRYFSGALPDDEDAGGSDDFELSGSGDLDDTEEPRPFPEVIEPLVPLDNHIPENAQPGIRVPSEPKELEENEVIPKRAPSDVGDDMSNKVSMSSTAQGSNIFERTEVLAALIVGGVVGILFAVFLILLLVYRMKKKDEGSYDLGKKPIYKKAPTNEFYA
notes: whole, on cells; also called FN receptor Sdc4
